Test results reported in paper PMC5118412 (Cell Discovery, 2016).

Experiments:
GLP-1R = conditions: covalently attaches to C347; ref [34], [35]; cited from earlier work
Description: GPCRs have been viewed as ‘allosteric machines’ [33] because many allosteric modulators have been identified binding outside the orthosteric pocket of the physiological activators to modulate endogenous agonist binding and function. […] Although mutating C347 to positively charged lysine or arginine ...

[1] = biological target: human GLP-1R stably expressed in AD293 cells (GLP-1R/NlucP-293 cells) (human) (UniProt P43220)
[2] = biological target: GLP-1-5xGSA-GLP-1R (24–429)–TEV site–tTA (UniProt P43220)
[3] = biological target: EX4-5xGSA-GLP-1R (24–429)–TEV site–tTA (Gila monster | human) (UniProt P43220)
[4] = biological target: GLP-1 Δ5-5xGSA-GLP-1R (24–429)–TEV site–tTA (UniProt P43220)
[5] = biological target: GLP-1 Δ4-5xGSA-GLP-1R (24–429)–TEV site–tTA (UniProt P43220)

Compound: CC[S+]([O-])c1nc(-c2cccc(OCc3ccccc3)c2)cc(C(F)(F)F)n1 (stereo not drawn) [BETP, 4-(3-(Benzyloxy)phenyl)-2-ethylsulfinyl-6 (trifluoromethyl)pyrimidine]
- allosteric modulation of GLP-1R (GLP-1R): positive allosteric modulator

Compound: GLP-1(9–37) (peptide)
- cAMP signal (CRE-NanoLuc luciferase reporter) in GLP-1R/NlucP-293 cells; potency (EC50) of full-length GLP-1 over that of the truncated GLP-1 [1]: 1000 fold

Compound: ß-arrestin 1 fused with TEV protease (from UniProt P49407 1-418) (natural protein)
- Tango assay (tTA/TRE-luc reporter) in HTL cells; arrestin recruiting signal against the unfused receptor with 1 μM hormone [2]: 150
- Tango assay (tTA/TRE-luc reporter) in HTL cells; arrestin recruiting signal against the unfused receptor with 1 μM hormone [3]: 150
- Tango assay (tTA/TRE-luc reporter) in HTL cells, relative to GLP-1-5GSA-FL (Δ0) (% of GLP-1-5GSA-FL (Δ0)) [4]: 50
- Tango assay (tTA/TRE-luc reporter) in HTL cells, relative to GLP-1-5GSA-FL (Δ0) (% of GLP-1-5GSA-FL (Δ0)) [5]: 50
